In patent US12723075B2, “Humanized antibodies directed against KCNK9” (The Johns Hopkins University, priority 2020, dated 2026):

Key:
human KCNK9 = molecular target: T1, human KCNK9 (Homo sapiens, UniProt Q9NPC2); test: Flow cytometry binding to KCNK9-expressing HEK293 cells; details: for Binding affinity to human KCNK9 relative to parental murine monoclonal antibody: PE conjugate secondary antibody (FIG. 1B)
T1 construct: expressed in transfected cells; host or cells: HEK293 cells, stably transfected, tetracycline-inducible promoter
Description: An anti-KCNK9 mouse monoclonal antibody having a VH amino acid sequence of SEQ ID NO: 1 and a VL amino acid sequence of SEQ ID NO: 2 (mu-mAb) was humanized using a method based on Queen et al., Proc. Natl. Acad. Sci. USA, 86: 10029-10033 (1989). The hybridoma antibody was sequenced after amplifying the antibody variable regions by RT-PCR with degenerate primers. The variable regions were fused with the human antibody IgG1 constant regions to produce a chimeric antibody. Antigen binding of the chimeric antibody was confirmed by staining of the KCNK9-expressing cells. HEK293 cells were stably transfected with KCNK9 expression vector under the tetracycline inducible promoter. After induction, the cells were incubated with various concentrations of chimeric KCNK9 antibody for 30 minutes, followed by secondary anti-human Fc FITC conjugate. Chimeric antibody binding was analyzed by flow cytometry. High affinity binding was confirmed with an EC50 of about 0.3 μg/mL (FIG. 1A).
After antibody sequence analysis and structure modeling, the murine antibody CDRs (SEQ ID NOs: 3-8) were grafted into human antibody VK3-11 and VH1-3 frameworks. Critical murine antibody framework residues that support CDR conformation were identified and introduced into the human frameworks. Five variants of the humanized VH sequences (VH1-5; SEQ ID NOs: 9-13) and three variants of the humanized VL variants (VL1-3; SEQ ID NOs: 14-16) were designed and synthesized. All of the variable regions were cloned into a human IgG1 expression vector. The VHs and VLs were cross-matched to generate 15 humanized KCNK9 antibody clones. All humanized antibodies were produced by transient transfection in 293 cells and purified by Protein A chromatography. Antigen binding of the humanized KCNK9 antibodies was characterized by immunofluorescence staining of KCNK9-expressing cells.

[1] = test system: Human LX22 PDX-derived lung carcinoma cells; test: MTT cell viability in combination with PARP or CDK4/6 inhibitor; type: cell-based; details: 72 hours
Method: Inhibitors of poly-ADP ribose polymerase (PARP) and cyclin dependent kinases (CDK4/6) are FDA-approved and undergoing clinical testing for multiple solid tumors. It was investigated whether inhibiting the KCNK9 K^+ channel with huKCNK9 mAb sensitized cancer cells to these therapeutics. Human LX22 PDX-derived lung carcinoma cells were treated with the PARP inhibitor AZD2461 (100 μM)+/−huKCNK9 mAb (400 μg/ml) or with the CDK4/6 inhibitor palbociclib (0.5 μM)+/−huKCNK9 mAb (400 μg/ml) for 72 hours. Cell viability was then quantified by MTT assay. Statistical comparisons were performed by ANOVA and post-hoc Tukey test.

[2] = test system: LX22 PDX small cell lung cancer cells; test: ADCC Reporter Bioassay with luciferase Jurkat effector cells; type: cell-based, human; details: six hours at 4° C. or 37° C. (FIG. 3)
Method: The capacity of the humanized KCNK9 AF-H5L2 monoclonal antibody to induce ADCC directed against LX22 PDX small cell lung cancer cells also was evaluated. ADCC assays were performed using the ADCC Reporter Bioassay Complete Kit (Promega #G7015). Human lung CA KCNK9+LX22 cells or CD20+ Raji cells (as positive control) were plated at 50,000 cells per well. On the following day, humanized afucosyl anti-KCNK9 (hu-AF-H5), hu-anti-CD20, or non-immune huIgG1 (as negative control) was added. 30 minutes later, FcγIIIa+ Jurkat effector cells expressing the vNFAT-luciferase ADCC reporter were added (300,000 cells/well). Cell mixtures were incubated for six hours at either 4° C. or 37° C. Cells were collected, solubilized, and luciferase activity was quantified as a biomarker of Jurkat cell activation.

[3] = test system: KCNK9-expressing BEN lung carcinoma cells; test: Cell growth and viability assays (cell numbers, MTT, trypan blue exclusion); type: cell-based, human; details: 0.4 mg/mL (FIGS. 4A-4C)
Method: The cytotoxic effect of the AF-H4L3 and AF-H5L2 monoclonal antibodies was tested on KCNK9-expressing BEN lung carcinoma cells. Equal numbers of viable BEN cells were treated with AF-H4L3, AF-H5L2, or human IgG control (0.4 mg/mL). Cells were collected at indicated days after treatment for cell growth and viability assays.

[4] = test system: KCNK9-positive BT549 carcinoma cells; test: Cell viability, KCNK9-positive breast cancer cells; type: cell-based, human; details: BT549, KCNK9-positive (FIG. 5)
[5] = test system: KCNK9-negative MDA-MB-231 cells; test: Cell viability, KCNK9-negative cells; type: cell-based, human; details: MDA-MB-231, KCNK9-negative (FIG. 5)
[6] = test system: BEN lung carcinoma xenografts; test: Pre-established BEN lung carcinoma xenografts in nude mice; type: in vivo; details: 4 mg/kg b.w. twice per week, established tumors, p<0.01 (FIGS. 6A-6D)
Method: Equal numbers of viable BEN cells (4×10^6 cells) were implanted into the flanks of nude mice. Humanized anti-KCNK9 monoclonal antibodies AF-H4L3, AF-H5L2, or control human IgG (4 mg/kg b.w.) were administered twice per week after tumor xenografts were established and palpable. Tumor volumes were then monitored during treatments using caliper measurements every alternate day (N=10 for each group).

T1 sequence (Q9NPC2 whole entry): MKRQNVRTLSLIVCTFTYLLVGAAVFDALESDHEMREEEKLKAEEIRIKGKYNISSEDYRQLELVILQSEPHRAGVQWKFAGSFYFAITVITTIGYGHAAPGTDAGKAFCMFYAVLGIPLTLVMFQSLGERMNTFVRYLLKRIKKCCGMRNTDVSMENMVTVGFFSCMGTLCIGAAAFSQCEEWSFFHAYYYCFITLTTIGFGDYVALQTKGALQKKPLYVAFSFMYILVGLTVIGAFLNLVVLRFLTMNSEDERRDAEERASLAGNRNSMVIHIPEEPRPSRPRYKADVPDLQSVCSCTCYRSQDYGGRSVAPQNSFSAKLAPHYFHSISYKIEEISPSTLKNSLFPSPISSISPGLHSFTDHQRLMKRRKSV

B1: H4L3: Humanized KCNK9 IgG1 antibody clone, VH SEQ ID NO: 12 and VL SEQ ID NO: 16 (antibody, V domains shown)
VH: QVQLVQSGAEVKKPGASVKVSCKASGYSFTGYYMYWVRQAPGQRLEWMGEINPSSGGTTYNQKFKARVTLTVDKSASTAYMELSSLRSEDTAVYYCARSGLRRRFYAMDYWGQGTLVTVSS
VL: EIVLTQSPATLSLSPGERATLSCRASESVDSFGTTFMHWYQQKPGQPPRLLIYRASNLESGIPARFSGSGSRTDFTLTISSLEPEDFATYYCQQSNKDPPTFGGGTKVEIK
modifications: human IgG1 constant regions
For B1, the “Binding affinity to human KCNK9 relative to parental murine monoclonal antibody” value (human KCNK9) was “higher affinity than their parental KCNK9 murine monoclonal antibody”.

B2: H5L2: Humanized KCNK9 IgG1 antibody clone, VH SEQ ID NO: 13 and VL SEQ ID NO: 15 (antibody, V domains shown)
VH: QVQLVQSGAEVKKPGASVKVSCKASGYSFTGYYMYWVRQAPGQRLEWIGEINPSSGGTTYNQKFKARATLTVDKSASTAYMELSSLRSEDTAVYYCARSGLRRRFYAMDYWGQGTLVTVSS
VL: EIVLTQSPATLSLSPGERATLSCRASESVDSFGTTFMHWYQQKPGQAPRLLIYRASNLESGIPARFSGSGSRTDFTLTISSLEPEDFAVYYCQQSNKDPPTFGGGTKVEIK
modifications: human IgG1 constant regions
In the case of B2, the “Binding affinity to human KCNK9 relative to parental murine monoclonal antibody” value (human KCNK9) is reported as “higher affinity than their parental KCNK9 murine monoclonal antibody”.

B3: AF-H5L2: Afucosyl version of H5L2 antibody generated using fut8−/− CHO cells (antibody, V domains shown)
VH: QVQLVQSGAEVKKPGASVKVSCKASGYSFTGYYMYWVRQAPGQRLEWIGEINPSSGGTTYNQKFKARATLTVDKSASTAYMELSSLRSEDTAVYYCARSGLRRRFYAMDYWGQGTLVTVSS
VL: EIVLTQSPATLSLSPGERATLSCRASESVDSFGTTFMHWYQQKPGQAPRLLIYRASNLESGIPARFSGSGSRTDFTLTISSLEPEDFAVYYCQQSNKDPPTFGGGTKVEIK
In the case of B3, the “Effect on cell toxicity induced by PARP inhibition” value ([1]; 400 μg/ml mAb + AZD2461 100 μM, MTT (FIG. 7A)) is reported as “substantially augmented”, the “Effect on cell toxicity induced by CDK4/6 inhibition” value ([1]; 400 μg/ml mAb + palbociclib 0.5 μM, MTT (FIG. 7B)) is reported as “substantially augmented” and the “ADCC induction (luciferase activity of Jurkat effector cells)” value [2] is reported as “induced ADCC that was temperature dependent”. The “Activity compared between the two clones, cell growth and viability” value [3] was “comparatively more active”, the “Effect on cell growth and viability” value [3] was “inhibited cell growth and viability” and the “Effect on cell viability” value [4] was “inhibited the viability”. The “Effect on cell viability” value [5] was “without effecting the viability” and the “Effect on tumor growth (tumor volume)” value [6] was “significantly attenuated tumor growth”.

B4: AF-H4L3: Afucosyl version of H4L3 antibody generated using fut8−/− CHO cells (antibody, V domains shown)
VH: QVQLVQSGAEVKKPGASVKVSCKASGYSFTGYYMYWVRQAPGQRLEWMGEINPSSGGTTYNQKFKARVTLTVDKSASTAYMELSSLRSEDTAVYYCARSGLRRRFYAMDYWGQGTLVTVSS
VL: EIVLTQSPATLSLSPGERATLSCRASESVDSFGTTFMHWYQQKPGQPPRLLIYRASNLESGIPARFSGSGSRTDFTLTISSLEPEDFATYYCQQSNKDPPTFGGGTKVEIK
B4 was tested, and the “Effect on cell growth and viability” value [3] was “inhibited cell growth and viability” and the “Effect on tumor growth (tumor volume)” value [6] was “significantly attenuated tumor growth”.

B5: chimeric KCNK9 antibody: Murine anti-KCNK9 variable regions (SEQ ID NO: 1 and 2) fused with human antibody IgG1 constant regions (antibody, V domains shown)
VH: EVQLQQSGPELVKPGASVKTSCKASGYSFTGYYMYWVKQSPEKSLEWIGEINPSSGGTTYNQKFKAKATLTVDKSSSTAYMQLKSLTFEDSAVYYCARSGLRRRFYAMDYWGQGTSVTVSS
VL: DIVLTQSPASLAVSLGQRATVSCRASESVDSFGTTFMHWYQQKPGQPPKLLIYRASNLESGIPARFSGSGSRTDFTLTINPVEADDVATYYCQQSNKDPPTFGGGSKLEIK
modifications: human IgG1 constant regions lack entries; Mus
B5 was tested, and the “EC50 of binding to KCNK9-expressing HEK293 cells” value (human KCNK9; flow cytometry, 30 minutes incubation, anti-human Fc FITC secondary) was “about 0.3 μg/mL”.
